Measurements from US20220370608A1 (HUMANITAS MIRASOLE S P A, published 2022).

Target: T1, receptor of advanced glycation end products (RAGE) on NK cells (human, UniProt Q15109 23-404)
T1 construct: whole, on cells; Endogenous receptor on primary NK cells from healthy donors; also called Receptor for Advance Glycation End product
Assay: flow cytometry of RAGE on NK cells treated with rhCHI3L1, and phospho-JNK flow cytometry (binding inferred)
Procedure: (a) Dot plots for RAGE expression on NK cells (left) and MFI of RAGE expression on NK cells treated with rhCHI3L1. (b) MFI of lytic granules staining in NKs treated with CHI3L1 (50 ng/ml) or anti-RAGE Blocking antibody (10 ug/ml) for 1 h. (c) effect of RAGE blockade on NK cells cytotoxicity (d) Basal P-JNK levels in NK cells treated with CHI3L1 (e) P-JNK levels in NK cells after 10 min of stimulation by RAGE ligand S100A8/A9 (10 ug/ml) alone or with rhCHI3L1 (100 ng/ml) and (f) P-JNK levels in time during ADCC of NK cells incubated with SKBR3 targets at (5:1) E:T ratio. All plots are representative of at least two
Single-cell suspensions, of blood or from cell culture, were obtained and incubated with Fc receptor-blocking antibody before being stained on ice. Dead cells were excluded by live/dead staining using fixable live/dead stain dyes (Thermofisher scientific). Primary NK cells [from healthy donors, after informed consent] were gated as singlets, CD14neg, FSC−. SSC appropriate for lymphocytes, CD3neg, CD16/CD56 poscells. Intracellular staining was performed using a fixation and permeabilization buffer (BD Bioscience). […] Stained cells were analyzed on FACSCanto II cytometer (BD Biosciences). […] Flow cytometry data were analyzed with FlowJo v10 software (Tree Star).

T1 sequence (Q15109 23-404): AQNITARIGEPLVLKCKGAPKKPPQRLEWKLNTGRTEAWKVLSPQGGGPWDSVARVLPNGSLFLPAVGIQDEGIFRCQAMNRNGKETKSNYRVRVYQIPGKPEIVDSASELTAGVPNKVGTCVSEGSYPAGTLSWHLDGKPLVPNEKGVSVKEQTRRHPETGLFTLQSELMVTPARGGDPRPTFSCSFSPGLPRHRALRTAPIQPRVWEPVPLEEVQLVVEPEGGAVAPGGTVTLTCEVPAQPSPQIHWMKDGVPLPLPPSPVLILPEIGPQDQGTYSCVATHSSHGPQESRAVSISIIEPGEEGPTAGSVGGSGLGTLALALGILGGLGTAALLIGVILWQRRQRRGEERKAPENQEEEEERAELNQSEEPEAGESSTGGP

B1: recombinant human Chitinase 3-like 1 (rhCHI3L1) (ligand)
chain: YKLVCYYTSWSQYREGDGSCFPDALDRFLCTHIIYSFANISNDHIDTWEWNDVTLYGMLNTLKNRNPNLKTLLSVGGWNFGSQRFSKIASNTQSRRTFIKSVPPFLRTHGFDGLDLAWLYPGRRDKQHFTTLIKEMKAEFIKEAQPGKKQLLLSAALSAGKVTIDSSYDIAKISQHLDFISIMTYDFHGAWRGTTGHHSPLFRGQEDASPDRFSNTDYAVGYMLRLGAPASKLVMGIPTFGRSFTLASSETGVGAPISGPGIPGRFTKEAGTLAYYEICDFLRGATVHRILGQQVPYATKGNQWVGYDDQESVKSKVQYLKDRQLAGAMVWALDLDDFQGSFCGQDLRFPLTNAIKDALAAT
notes: Recombinant protein; also called YKL-40; CHI311
B1: binds.
